The supplement of paper PMC7125110
± gives the standard error. For some assays here: Variants at the floor of the assay were thinned out.

B1: glmS ribozyme (parent)
chain: AUAAAAGCGCCAGAACUACAGAAAUGUAGUUGACGAGGAGGAGGUUUAUCGAAUUUUCGGCGGAUGCCUCCAAA

What was measured:
Conditions in all cases: with glucosamine-6-phosphate
glucosamine-6-phosphate [1] = variants of: B1; experiment: kcat; higher = faster cleavage; RNA array
How it was run: (§1)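 Tracking of barcoded ribozyme variants used a hybridised Cy3 probe at 37 °C, after in situ transcription by E. coli RNA polymerase on sequenced MiSeq chips. The flowed solution held 40 μM to 10 mM glucosamine-6-phosphate in HEPES/KCl/Mg(OAc)2 buffer, and imaging ran over ~14 h. kobs was taken from exponential decay fits of normalised per-tile medians, and kcat and KM from weighted Michaelis–Menten fits.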

glucosamine-6-phosphate [2] = variants of: B1; experiment: self-cleavage kobs at 640 uM GlcN6P; higher = faster cleavage; RNA array
How it was run: as §1

glucosamine-6-phosphate [3] = variants of: B1; experiment: self-cleavage kobs at 2500 uM GlcN6P; higher = faster cleavage; RNA array
How it was run: as §1

glucosamine-6-phosphate [4] = variants of: B1; experiment: self-cleavage kobs at 10000 uM GlcN6P; higher = faster cleavage; RNA array
How it was run: as §1

glucosamine-6-phosphate [5] = variants of: B1; experiment: self-cleavage kobs at 40 uM GlcN6P; higher = faster cleavage; RNA array
How it was run: as §1

glucosamine-6-phosphate [6] = variants of: B1; experiment: KM; higher = weaker cofactor use; RNA array
How it was run: as §1

glucosamine-6-phosphate [7] = variants of: B1; experiment: self-cleavage kobs at 160 uM GlcN6P; higher = faster cleavage; RNA array
How it was run: as §1

Row | Variant | kcat (glucosamine-6-phosphate [1]) [s⁻¹] | self-cleavage kobs at 640 uM GlcN6P (glucosamine-6-phosphate [2]) [s⁻¹] | self-cleavage kobs at 2500 uM GlcN6P (glucosamine-6-phosphate [3]) [s⁻¹] | self-cleavage kobs at 10000 uM GlcN6P (glucosamine-6-phosphate [4]) [s⁻¹] | self-cleavage kobs at 40 uM GlcN6P (glucosamine-6-phosphate [5]) [s⁻¹] | KM (glucosamine-6-phosphate [6]) [µM] | self-cleavage kobs at 160 uM GlcN6P (glucosamine-6-phosphate [7]) [s⁻¹]
1 | AUAAAAGCGCCAGAACUACAGAAAUGUAGUUGACGAGGAGGAGGUUUAUAGAAUUUUCGGCGGAUGCCUUCAAA [C50A C70U] | 3.03e-05 ± 6.5e-06 | 2.82e-05 ± 9.4e-06 | 3.95e-05 ± 6.5e-06 | 1.9e-05 ± 7e-06 |  |  | 
2 | AUAAAAGCGCCAGAACUACAGAAAUGUAGUUGACGAGGAGGAGGUUUAUAGAAUUUUCGGCGGAUCCCUCCAAA [C50A G66C] | 1.65e-05 ± 3e-06 |  |  |  |  |  | 
3 | AUAAAAGCGCCAGAACUACAGAAAUGUAGUUGACGAGGAGGAGGUUUAUAGAAUUUUCGGCGGAUGGCUCCAAA [C50A C67G] | 2.95e-05 ± 1.1e-05 |  | 4.73e-05 ± 9.8e-06 |  | 1.98e-05 ± 9e-06 |  | 
4 | AUAAAAGCGCCAGAACUACAGAAAUGUAGUUGACGAGGAGGAGGUUUAUAGAAUUUUCGGGGGAUGCGUCCAAA [C50A C61G C68G] | 3.41e-05 ± 1.4e-05 | 6.76e-05 ± 1.9e-05 |  | 2.92e-05 ± 1.3e-05 |  |  | 
5 | AUAAAAGCGCCAGAACUACAGAAAUGUAGUUGACGAGGAGGAGGUUUAGCGAAUUUUCGGCGGAUGCCUUCAAA [U49G C70U] | 0.001 ± 4.7e-05 | 0.000263 ± 3e-05 | 0.00059 ± 7.5e-05 | 0.000837 ± 7.5e-05 | 2.78e-05 ± 1.2e-05 | 1860 ± 160 | 7.37e-05 ± 1.3e-05
6 | AUAAAAGCGCCAGAACUACAGAAAUGUAGUUGACGAGGAGGAGGUUUAUAGAAGCUUCGGCGGAUGCCUCCAAA [C50A U54G U55C] | 1.47e-05 ± 3.9e-06 |  |  |  |  |  | 
7 | AUAAAAGCGCCAGAACUACAGAAAUGUAGUUGACGAGGAGGAGGUUUAGCGAAUUUUCGGCGGAUGUCUCCAAA [U49G C67U] | 0.000381 ± 5.6e-05 | 7.24e-05 ± 1.9e-05 | 0.000257 ± 6.4e-05 | 0.000292 ± 4.6e-05 |  | 2520 ± 770 | 
8 | AUAAAAGCGCCAGAACUACAGAAAUGUAGUUGACGAGGAGGAGGUUUAGCGAAUAUUCGGCGGAUGCCUCCAAA [U49G U55A] | 0.00113 ± 0.0001 | 0.000213 ± 2.8e-05 | 0.000539 ± 5.5e-05 | 0.000891 ± 0.00013 |  | 2740 ± 370 | 6.19e-05 ± 9.7e-06
9 | AUAAAAGCGCCAGAACUACAGAAAUGUAGUUGACGAGGAGGAGGUUUAGCGAAUUUUCGGCGGAUGCUUCCAAA [U49G C68U] | 0.000145 ± 1.9e-05 | 6.17e-05 ± 1.2e-05 | 9.44e-05 ± 1.6e-05 | 0.000144 ± 1.8e-05 |  | 862 ± 360 | 5.03e-05 ± 2.2e-05
10 | AUAAAAGCGCCAGAACUACAGAAAUGUAGUUGACGAGGAGGAGGUUUAGCGAAUUUUCGGCGGUUGCCUCCAAA [U49G A64U] | 1.18e-05 ± 9.4e-07 |  |  |  | < 1e-05 |  | < 1e-05
11 | AUAAAAGCGCCAGAACUACAGAAAUGUAGUUGACGAGGAGGAGGUUUAGGGAAUUUUCGGCGGAUGCCUCCAAA [U49G C50G] | < 1e-05 | < 1e-05 |  |  |  |  | 
12 | AUAAAAGCGCCAGAACUACAGAAAUGUAGUUGACGAGGAGGAGGUUUAUGGAAUUUUAGGCCCAUGCCUACAAA [C50G C58A G62C G63C C70A] | 0.000121 ± 3.1e-05 | 0.000166 ± 4.1e-05 | 0.000239 ± 5.5e-05 | 9.95e-05 ± 1.6e-05 | 4.49e-05 ± 1.7e-05 |  | 0.000204 ± 4.8e-05
13 | AUAAAAGCGCCAGAACUACAGAAAUGUAGUUGACGAGGAGGAGGUUUAGCGAAUUUUCGGCGGAUUCCUCCAAA [U49G G66U] | 6.16e-05 ± 2.8e-07 |  |  | 3.94e-05 ± 1.3e-05 |  | 5640 ± 59 | 
14 | AUAAAAGCGCCAGAACUACAGAAAUGUAGUUGACGAGGAGGAGGUUUAGCGAAUUUUCGGCGGAUACCUCCAAA [U49G G66A] | 0.000689 ± 0.00024 | 5.55e-05 ± 1.3e-05 | 0.00024 ± 3.6e-05 | 0.000375 ± 9.3e-05 |  | 6210 ± 3000 | 
15 | AUAAAAGCGCCAGAACUACAGAAAUGUAGUUGACGAGGAGGAGGUUUAUAGCAUUUUCGGCGGAUGCCUCCAAA [C50A A52C] | < 1e-05 | < 1e-05 |  |  | < 1e-05 | 2730 ± 690 | < 1e-05
16 | AUAAAAGCGCCAGAACUACAGAAAUGUAGUUGACGAGGAGGAGGUUUAGCGAAUUUUCGGAGGAUGCCUCCAAA [U49G C61A] | 1.48e-05 ± 3.5e-06 |  |  |  |  |  | 
17 | AUAAAAGCGCCAGAACUACAGAAAUGUAGUUGACGAGGAGGAGGUUUAUGGGAUUUUCGGCGGAUGCCUCCAAA [C50G A52G] | 2.65e-05 ± 7.5e-06 |  | 3.29e-05 ± 1.4e-05 |  |  |  | 3.58e-05 ± 1.7e-05
18 | AUAAAAGCGCCAGAACUACAGAAAUGUAGUUGACGAGGAGGAGGUUUAUAGAAUUUUCGGCGGAGGCCUCCAAA [C50A U65G] | 2.65e-05 ± 9.7e-06 |  |  |  |  |  | 
19 | AUAAAAGCGCCAGAACUACAGAAAUGUAGUUGACGAGGAGGAGGUUUAUGGAGUUUUCGGCGGAUGCCUCCAAA [C50G A53G] | 4.4e-05 ± 2.2e-05 |  | 3.81e-05 ± 1.5e-05 |  |  |  | 
20 | AUAAAAGCGCCAGAACUACAGAAAUGUAGUUGACGAGGAGGAGGUUUAGCGAAGUUUCGGCGGAUGACUCCAAA [U49G U54G C67A] | 0.00023 ± 5.1e-05 | 0.000235 ± 5.1e-05 | 0.000269 ± 7.4e-05 | 0.000194 ± 3.6e-05 |  |  | 
21 | AUAAAAGCGCCAGAACUACAGAAAUGUAGUUGACGAGGAGGAGGUUUAUAGACUUUGGGGCGGAUGCCUCCAAA [C50A A53C U57G C58G] | 6.76e-05 ± 2.5e-05 | 0.000112 ± 2.3e-05 | 8.01e-05 ± 1.9e-05 |  |  |  | 
